Tests used:
[1] = biological target: Sfp, phosphopantetheinyl transferase of Bacillus subtilis subsp. spizizenii ATCC6633 (Bacillus subtilis subsp. spizizenii ATCC6633); test: cell-based or functional assay
[2] = biological target: PP1183, putative phosphopantetheinyl transferase of Pseudomonas putida KT2440 (Pseudomonas putida KT2440); test: cell-based or functional assay
[3] = biological target: PcpS, phosphopantetheinyl transferase of Pseudomonas aeruginosa PAO1 (Pseudomonas aeruginosa PAO1); test: cell-based or functional assay
PcpS = PcpS (Pseudomonas aeruginosa, UniProt Q9I4H2); test: Carrier protein (CoA) competition assay with PcpS; type: biochemical, P. aeruginosa PAO1; conditions: competition with BpsA for limited CoA (250 nM), read-out: IC50 for carrier protein mediated inhibition of BpsA activation
From the text: (§1) Another aspect of the invention described is a CoA competition assay for PPTase characterization. Assays of this type consist of two phases. In the first phase is the competition phase in which apo-BpsA and a purified carrier protein (CP) to be characterized compete for a limited pool of CoA which is attached to either the CP to be characterized or apo-BpsA by a PPTase. During this first phase, only the substrates necessary for phosphopantetheinylation are present. Following the competition phase, the production phase is initiated. In the production phase, the substrates required for pigment synthesis by holo-BpsA (L-gln and ATP) are added to reaction vessels and the velocity (A590/s) of the resulting reaction measured. […]
(§2) One limitation of the approach outlined above for determination of PPTase kinetic parameters is that it only provides information about a PPTase of interest with a single carrier protein substrate (that of BpsA). […] Four carrier proteins were employed in assessed using this assay, these were: The peptide carrier protein of BpsA (bPCP), the peptide carrier protein of the first module of the Pseudomonas aeruginosa NRPS PvdD (pPCP), the peptide carrier protein of the Microcysitis aeruginosa NRPS/PKS MycG (mPCP) and the aryl carrier protein from Nostoc punctiforme protein HetM (npArCP). […]

Sfp = Sfp (Bacillus spizizenii, UniProt G4NQW2); test: Carrier protein (CoA) competition assay with Sfp; type: biochemical, B. subtilis subsp. spizizenii ATCC6633; conditions: competition with BpsA for limited CoA (250 nM), read-out: IC50 for carrier protein mediated inhibition of BpsA activation
From the text: as §1, §2

PP1183 = PP1183 (Pseudomonas putida, UniProt Q88NM4); test: Carrier protein (CoA) competition assay with PP1183; type: biochemical, P. putida KT2440; conditions: competition with BpsA for limited CoA (250 nM), read-out: IC50 for carrier protein mediated inhibition of BpsA activation
From the text: as §1, §2

Sfp, sequence (G4NQW2 entry or part of it): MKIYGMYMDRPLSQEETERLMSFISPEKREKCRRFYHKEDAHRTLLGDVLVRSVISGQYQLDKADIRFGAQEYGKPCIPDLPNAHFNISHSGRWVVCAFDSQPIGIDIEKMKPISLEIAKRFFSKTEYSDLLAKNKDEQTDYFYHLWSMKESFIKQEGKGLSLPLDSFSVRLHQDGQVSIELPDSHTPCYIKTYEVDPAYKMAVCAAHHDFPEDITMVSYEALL
PcpS, sequence (Q9I4H2 entry or part of it): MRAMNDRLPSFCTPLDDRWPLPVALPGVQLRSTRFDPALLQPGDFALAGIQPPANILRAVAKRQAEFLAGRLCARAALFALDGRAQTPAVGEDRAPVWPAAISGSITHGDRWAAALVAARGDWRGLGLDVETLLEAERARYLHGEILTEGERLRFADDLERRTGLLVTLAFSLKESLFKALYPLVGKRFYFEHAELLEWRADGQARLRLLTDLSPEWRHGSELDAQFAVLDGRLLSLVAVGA
PP1183, sequence (Q88NM4 entry or part of it): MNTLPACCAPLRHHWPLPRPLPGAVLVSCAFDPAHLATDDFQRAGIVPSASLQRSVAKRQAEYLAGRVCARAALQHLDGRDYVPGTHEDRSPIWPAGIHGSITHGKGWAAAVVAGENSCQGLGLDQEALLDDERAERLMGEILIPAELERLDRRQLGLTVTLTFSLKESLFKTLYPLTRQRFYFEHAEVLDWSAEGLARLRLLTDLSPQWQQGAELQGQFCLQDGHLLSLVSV

B1: The peptide carrier protein of BpsA (bPCP), purified recombinant His6 tagged (protein)
chain: FVAPRTETEKEIAAVWEKALRRENASVQDDFFESGGNSLIAVGLVRELNARLGVSLPLQSVLESPTIEKLARRLE
[1]
  IC50 (carrier protein competition with BpsA for limiting CoA): 720 nM
  kcat/Km (estimate derived from IC50) (Min^-1 · µM^-1): 0.69
[2]
  IC50 (carrier protein competition with BpsA for limiting CoA): 300 nM
  kcat/Km (estimate derived from IC50) (Min^-1 · µM^-1): 3.88
[3]
  IC50 (carrier protein competition with BpsA for limiting CoA): 710 nM
  kcat/Km (estimate derived from IC50) (Min^-1 · µM^-1): 7.77
PcpS
  IC50: 710 nM
Sfp
  IC50: 720 nM
PP1183
  IC50: 300 nM
